Source: patent US20220267422A1

Molecular target: doppel (Prnd) recombinant protein immobilized on the SPR sensor chip
Experiment: SPR, BIAcore T100, recombinant protein immobilized on chip

doppel (Prnd) recombinant protein immobilized on the SPR sensor chip, sequence (Q9UKY0 26-152): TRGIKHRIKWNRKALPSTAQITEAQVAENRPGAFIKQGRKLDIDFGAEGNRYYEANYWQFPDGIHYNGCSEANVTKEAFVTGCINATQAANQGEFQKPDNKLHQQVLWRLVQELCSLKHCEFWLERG

B1: Human monoclonal antibody 3D1 (antibody, human IgG1, kappa, V domains shown)
VH: EVQLVESGGGLVQPGGSLRLSCAASGFTFSDYAMSWVRQAPGKGLEWVSRISGSGGTKYYADSVKGRFTISRDNSKNTLYLQMNSLRAEDTAVYYCAKHQVYWALDVWGQGTLVTVSS
VL: DIQMTQSPSSLSASVGDRVTITCRASQSISNWLNWYQQKPGKAPKLLIYATSSLQSGVPSRFSGSGSGTDFTLTISSLQPEDFATYYCQQSYSYPWTFGQGTKVEIKR
  Kd: 0.308 nM
